Experimental data from patent US20070172906A1 (BIOSITE, published 2007).

Target: T1, Human latent protein C (Enzyme Research Labs, Catalog # HPC 1001) (human, UniProt P04070 43-197; P04070 200-461)
T1 construct: Bought protein; It was biotinylated for panning and ELISA
Assay: method not stated

T1 sequence (P04070 43-197, form in doubt, chain 1 of 2): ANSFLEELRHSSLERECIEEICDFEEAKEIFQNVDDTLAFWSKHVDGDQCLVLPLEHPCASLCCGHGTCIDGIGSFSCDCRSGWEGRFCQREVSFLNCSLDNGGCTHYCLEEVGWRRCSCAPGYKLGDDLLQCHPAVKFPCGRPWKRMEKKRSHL
T1 sequence (P04070 200-461, form in doubt, chain 2 of 2): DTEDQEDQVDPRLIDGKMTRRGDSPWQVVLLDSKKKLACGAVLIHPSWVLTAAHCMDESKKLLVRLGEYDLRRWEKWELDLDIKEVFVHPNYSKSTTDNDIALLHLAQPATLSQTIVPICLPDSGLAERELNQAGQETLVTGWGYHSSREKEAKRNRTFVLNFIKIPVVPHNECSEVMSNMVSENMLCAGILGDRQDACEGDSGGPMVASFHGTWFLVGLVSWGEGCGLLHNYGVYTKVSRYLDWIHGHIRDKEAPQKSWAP

B1: Z3XM01011 (antibody, V domains shown)
VH: EVQLQQSGPGLVEPSQSLSITCTVSGFSLRSYGVHWVRQSPRKGLEWLGGIWSGGRIDYNAAYISRLTINKDNSKSQVFFKMNSLQADDTAIYYCVRKAIDLGDYYGMDYWGQGTSVTVSS
VL: DIVMTQFSQILSTSVGDRVSITCKASQDVGTAVAWYQQKPGQSPKLLIYWASTRHTGVPGRFTGSGSGTDFTLTIISVQSEDLADYFCQQYSSYPTFGGGTKLEIK
notes: Mouse monoclonal antibody from the same Fab phage library after one more round of panning, subcloned into a pBR322 expression vector
  Ka: ≥ 1e+10 M⁻¹

B2: Z1XM01701 (antibody, V domains shown)
VH: EVMLVESGGGLVKPGGSLKLSCAASGFTFSNYAMSWVRQTPAKRLEWVATISGGGGNTYYPDSVKGRFTISRDNAKNTLYLQMSSLRSEDTALYYCARHPNRFETAVDYWGQGTSVIVSS
VL: QIVLTQSPAILSASPGEKVTMTCRASSSVSSVHWYQQKPGSSPKPWIYATSNLASGVPTRFSGGGSGTSYSLTISRVEAEDAATYSCQQWSSDPPTFGGGTKLEIK
notes: It was subcloned into a pBR322 expression vector, expressed, purified and biotinylated; also called SE61z1zm-01071
  Ka: ≥ 1e+10 M⁻¹
